Assay: soluble on expression in E. coli; label from the status in PepcDB or PDB records

Sequence	soluble on expression in E. coli
MGSDKIHHHHHHMSVRCASLSAMELTQATVNDLLAQLGPGDSYMYLPSDLDPQDLTDLLDGRYGAARTLVLDGFTDPTVDESRGAALLVPFEDRAVKIRAWAYGDQWVGTGTARDAKGAERPVLVVAHREVPEPLAVAPDEDEDVDWMERLIRITGWTRPAQRPDVDWAEVESRLGTALPSDYKRMVETFGEGAFDGYLDLNQEPWTDLRRDGLLIWAGTEHEDLYCWRADGDDPDRWPVVVRSFDNKDVPFDCQAAKFVCRILIDPHHPFTMARYFDTHWFMNYRESG	not soluble
MGSDKIHHHHHHMSYDLPRLTPDKDFKVPSACGVSGIMNTSGKRFSGSVIVESMALMRERGNGLGAGYAAYGIYPELKDLYCFHMLYDSDLDKKNAEEYIKDHYEIIESEPIPTRKNPHIKEVHILWRYFLKPKFIPEDMSEEDFVVSTVMFINEKINGAFVMSSGKNMGVFKGVGFPEDIADFYRIDEYKGYIWTAHNRFPTNTVGWWGGAHPFGILDWTVVHNGEISSYGINRRFLEAYGYKCTLMTDTEVVAYLVDLFMRRFGYSPQLTAKILAAPLWKDIDLMPEEERKLYTALRMNYGGALLNGPFAIIVANNNMMMGLNDRIKLRPLVAATKDDFLYIASEESAIRVVCPEPDEVWAPKAGDPVVGVLKSARKTQVVLEGENG	not soluble
MGSDKIHHHHHHMSYWIQISNNVRYSNTFEPVCQPGATREERSTTDPGGVGTVPAIHGASNLNIIPIMRARRASITWPSEGLTRVPYALFQDEGVYADEQDAIFRGPNWSYLCLEAEVPNQGDFRSTFVGDAPVVVTRDTDGEIYAFENRCAHRGAMVCLEDQGNARDFSCVYHAWTYSLQGDLVGVAFKDGIDGKGGMKPDFCTGDHGLRKLRVATLHGLVFGSFSDDVPPLDEYLGEEIVERIARVLENRKPVVLGRFTQMLPNNWKLYFENVKDSYHASILHLFFTTFQLNRLSQRGGIIVDPSGGHHVSYSAVDHAAEAAAQRKATSDYADQKIRSESEHRLEDTSVLAGVDEFGDGVTLQILSVFPGFVLQQIQNAIAVRQILPRGTQQTELNWTYLGFEDDTPELREMRLRQSNLVGPAGYVSMEDGCVGGFVQRGIEGAGDGRSVIEMGGDSAESSASRVTEASIRGFWKAYRNAMGY	not soluble
MGSDKIHHHHHHMTAGRIRIDEVIKDGEKIIAVSRTSPFYPDGKGGQLGDRGKIGPANVLKVKEKNGYILHYLDAHLEPGDYECEIDPARRKDIACQHTAQHILSAAFLKVADLETVSFHMGERVSTIDLNAPFVLEDVLEEAEDLANEVVRSCERVEILEIEKEEAEKMNLRKLPNVEGKVRVVKIGDFDVTACGGFHVENTGEIGLIKIVDTEKVKKVLTRIYFTAGDRALKDYREKDKLLKSLSRVLTTSTKELLKRAENLLEEVKEKSAKLDKLSEKYAEILSKVAEPEKVGKYYLYHFSGTPEEMKYLPKFLADRKDTIVLLEHPDRIEIVSNWIDCRKIFEKLKDQLNVEGGSSQKRAVITANSASRIVEKLREILKWF	not soluble
MGSDKIHHHHHHMTAQFDDATLTKRLAKGTGEILKGVRNVGLLRGRELGEAGDDLAQNWIARVLEQHRPDDGFLSEEAADNPERLGKDRVWIIDPLDGTKEFATGRQDWAVHIALVENGVPTHAAVNLPDLGVVFHSSEVRAVGGPYAKKIAISHNRPPAVATHIAESLGFTAEPMGSAGAKAMHVLLGDYDAYIHAGGQYEWDSAAPVGVSLAAGLHCSRLDGTPLNYNNKDTYLPDVLICRPELADDILTMAAAFREENGSY	not soluble
MGSDKIHHHHHHMTDITVAETSAPDTIKAFEERLMQVSDTLPKRLKQCADYVGANKDRIAVSTVAEMAEGAGVQPSAFMRFCQIFGFSGFSEMQKLFRDSLVGGWPDYSTRLHHLRETASGSPSALLAEFVEAGRVSLEGLLQTVDPQLLEQAVACLSTAGMIHIVGLRRSFPVASYIAYAFEKMAVPAMLHSGVGKLESQHAIRDGDVVLAITFAPYSTETLDLVEQVSARGISVVAITDTVVNPLRKLGTITLSVAEVDFGAFRSLSATLCLAIALSVAVGTARQQD	not soluble
MGSDKIHHHHHHMTDRLFTETLLAAVGEDLLRTRLSEEFIRVDLGAETVAPLLTFDALSELLSTHQLEPPRLRLHRAGAPVPLDNYTEVGEASGVQRRLVRPEALYAQLRQGASLVLDGIDRIHPPIRAAADDLMRLVHERVQVNLYLIWGDSHGFNTHWDDHDTFIVQVAGTKHWQVHGQGTRPYPMKEDIDHSHQPPEGTVWEGTVRAGEVLHVPRGWWHTVTGTGDVSMHLTFGFTRATGVDWARWLVDRLYEVEFARRDLPRFATPEERRKHQHELLRHLMDLAEQHGLDEFLTDRDSRFPRRQSFSLPWAVDGATPQPDTVVEFTPILPSALRDEGQKVALTVAGRRYTFAKAAQPLLEVLVDARVLTVAELAERAGAEVETAAALARVLVQHHLVLLRSTS	not soluble
MGSDKIHHHHHHMTERIDFTKSEQYTLSIRLSADGFSFSIYNPLTDNDFCFVPHPVNTGYSMTANLKDMLTKTEALKYPYKRVNILYDSPRFTPVPLELFEDEQMDTIFYHNFPKAKGNNEIVLCNVLGRSNVVILFAMDKHTHLLLTEHFPTARFFSTASPLTEYFARKSRLGNSRKLYTYIREQQMEVFCFDKGNLLLINSFPCKQTTDRVYYLLYVWQQLNYNQERDELHLTGILKDKEELLKELRNYLRQVFVISPKAEFNRSEISKIEEIPFDMQTLLLCE	not soluble
MGSDKIHHHHHHMTETERLALASLLYQLADDDFLYAYRGSEWLGLAPHIEEDVASSSIAQDSMGHAAMYYQLLEEIGEGKADALAHVRLAHERKNSVLVERVNGPGYYMENPEYDWAYAVVRNYCYTLAKKVRIDSLKKSSYTPLAALAVKVNMELYYHLLHWQTWFTQLYQSTETARQKMDAALERVLADFGDLFDYGEASELIDEMRLIEGQGILLDRWYQALTPVLVDLNVTLPEMKMTYNGRNGEHSPDLNDALSTLGEVYLLDQSAVW	not soluble
MGSDKIHHHHHHMTFDANDVVRRLGARLKMRHLMLLLQIQQHGSLTRVAEHMASSQPAVTNALSELESMFGTPLFERTSRGMRPTALGSVVLERARAMLKDLDHLAREMEAVAAGHAAHLHIGVIPFISGQMLSAALKRLQSRMERRLTVTIHEGTSDQLLLQLKDHSVDLVIGRASSAIDLGQVSFEVLYQQQPRMIASRRLAAKLARTKLDWQKLHALDWILGAPHTPMREQVTDLFLSAGIAPPVPIVESYSSKLIGEMIASSDDAVSIVPADIAEEMVRIAGVAIVPYSLVWTLPPIALFTRAGESHAPTRDLLVQALREICRETYVEVPR	not soluble
MGSDKIHHHHHHMTHPLLAIDNLSIAFRQQGETQTVVHNLSLEVAVGETLALVGESGSGKSISALSVLRLLPTPPASYPSGDIRFHGQSLLHADEATLRGVRGNRIAMIFQEPMVSLNPLHTLEKQLYEVLSLHRGMRKQAARGEILDCLERVGIRQAPRRLADYPHQLSGGERQRVMIAMALLTRPELLIADEPTTALDVSVQAQILQLLRELKQELNMGLLFITHNLSIVRQLADRVAVMQNGRCVEHNDCRALFSAPAHPYTQRLLDSEPDGEPVPLAADAPVLLQADDLKVAFPVRKGILRRVVDHHRVVNSLSFQLRAGETLGLVGESGSGKSTTGLALLRLIPSGGKITFAGQPIQGRNRRQLLPLRRQMQVVFQDPNSSLNPRLTAQQIIEEGLRVHQPTLTAAEREQAVILAMQEVGLDPASRQRYPAAFSGGQRQRIAIARALIVKPQLIVLDEPTSSLDKTVQAQILNLLKALQRKHQLAYIFISHDLGVVRALCHQVMVLRQGEVVEQGECKSVFSAPRHEYTRQLLALS	not soluble
MGSDKIHHHHHHMTIDDFYSFITLYKTRNISDAAIALNITQSALSKRLRNMQQELDTALISTRNKRQLTITESGEVFFRYAQTLTAQYQLLQQELLDYRELRRGTIQIGSVPVMAQYGLASKMSQFMQDYPQINFSLAELEGADLLTQLQHQSFDLGILRDVQSQQLNHSQFDAVTLTDDELKVVLPSDHPLAHQTSIQLPDLRPFDVVTLSPGSGVYERISERYQQAGFTPNIRFSTPHIETLLAMIAHTDRVTFLFAKSVAPFMTADFVMRPFTDPIISHLQLVYPHGTLSPAAQRFIHYLTD	not soluble
MGSDKIHHHHHHMTIHISTAPCCWGVDDVKNPYLPAWRDVLGEASEAGYRGVELGPYGYLPLDPAVVSAALGENRLHVVAGTVFDDLVTLTNLPSLLRQTHDICALLKQLPPIDKEPGQRFAGPYLVIIDWGHEERDYAAGHSELAQRLDDGAWQTMMEHIRAICQIAWHEYGIRPVIHPHAGGYIEFADELARLVDDIPDDVAGLCLDTGHLYYAGMDPAASLRTYADRLDYIHFKDIDQSVFDDVMKQRIKFFDACARGVMCPIGRGVIDYPSLYRLIQTLGYEGYITVEQERDPRNANGSLEDVRSSRTYLANVGF	not soluble
MGSDKIHHHHHHMTIRQTKEANLLISERADFQVTAKIEQMAKGYIDRWHQHPWHQIAFPFEGILQTKVADSQFVIPHSGMLFIPANTPHESFVVTDTKFIGIYLNPQFQNHFPLTAKAISVTPFLRELVLHINHGVSNSIVSEEELSKLVAVLIDQISSGESYQMKLLLPSDRRLMIIFKALMTDPQLNTKLSDWAKQVGASERTLSRLFTKELGMTFPLWRQHLRLVSSLNLLETNLSVQEIAFKVGYNADSSFIYAFKKLFQQTPQQYRHSGFKLSSRINDK	not soluble
MGSDKIHHHHHHMTIYSWNALYLGNAGDIDSYEGDLYAEGASNILGSYGSPGDPLYDHIVDVVVNDADDDTDINSDNYDFWSPDAMTVDGVAHTLDSGVVYNATLTYADGSTANITAVVIQTTDGDLYLAPEMTANDDWVAMEAKAIVSVSLDSVSVDTTYIAANRQQTNFICFAAGTRIATPKGARPVETLAVGDLVQTLDHGPQPIRWIGTRRVGLATQLLSHGVAPVVIPAHSFAPSIPTHPLLLSQQHRVLLRSRIARRMYGSDEILIAARRLTGLHGIALRPATGPVRYIHFALDRHEIVFANGLPAETLLLGAEVERVLGTDVFTQIEQSQNRGAIALAMRPARPIVEGRRARSFVERLRNRACRHALANPIKVPQNRVTGLISLVSPPG	not soluble
MGSDKIHHHHHHMTKETATISQLQQDIINNSQKGFPLTSQPYKTIAEQLADVNIVTNELEVFQAIDDLNSQEVLSRVGPVFDHKKAGASTLAALAVPAKDLDKIAGIVNQFDQVNHNYGREHVYNLWFVVTASDMVALNSTIVNIELLTGLPVLVLPMEASYHIDLAFSINVTGIESPTSNQENRPVTFDNNDTTSLTDIEKTALRRAIEKGLPTHLFPYQAIAQQLALSEQQVLMQISLWQEEGLIRRFGLVIKHRKLGYDANAMVVWNIPNENMDAIALKLAKCAPVSLCYQRPRRLPDWPYNLFCMIHGTDRSLVLQQISQITEQLGLESIEKDVLFSFKAYKQHGARYFKTNSKKAKTNNISAGKTENNNDMKKQGQAHG	not soluble
MGSDKIHHHHHHMTKLYEPFYRLTIELTECEREIIGSRPFKRLAHLHHYGAAALRTPVTHSRYEHTIGVWSLTAHFFPSDQLLRLVALLHDIGHLPFSHAVEQPLGFNHHLLTERLIESQEVAKILKKHGFIPQDVIRRLNENTPVSNQEKLLSLDHLDSFLRDTTLAGTCSLIPHESLGRLSVRGNGIETDEETALLLASCIVKDHELFLDPFNLAMDALLAEAITLYMADKPLVSMENIPHMTDDEVLTLLRGSWNKKVHAHLKLLFSQQPTLVQTDDESSAKLTVTVRKVYEDRPLIRHGTAKGREMVEKKLAELQELKGRFSFVY	not soluble
